Several values for one entry are separate records, joined by “and”; a condition that tells them apart may be missing. Equal values may be shown once.
Biological target: Sox6 HMG domain (human) (UniProt P35712)
Assay: UV laser footprinting
Conditions: 10 mM Tris pH 7.4, 75 mM NaCl, 1 mM EDTA, 1 mM DTT, BSA (100 mg/mL [sic]), 0.01% NP40, 5% glycerol, 37 C, 50 nM DNA or nucleosome (Kdapp is not true Kd) …

Sequence of Sox6 HMG domain (human) (P35712 618-697): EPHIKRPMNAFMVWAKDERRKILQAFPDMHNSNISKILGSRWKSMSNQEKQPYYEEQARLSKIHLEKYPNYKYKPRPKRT

**Q.** For “GCATGATTCTTAAGACCGAGTTCATCCCTTATGTGATGGACCCTATACGCGGCCGCCATCAGAATCCCGGTGCCGAGGCCGCTCAATTGGTCGTAGACAGCTCTAGCACCGCTTAAACGCACGTACGCGCTGTCCCCCGCGTTTTAACCGCCAAGGGGATTACTCCGGACAATGGAGGCACGTGTCAGATATATACATCGATGTGCATGTATTGAACAGCGACCTTGCCGGTGCCAGTCGGATAGAATTCCGGAC (double strand) [601-SHL4 naked DNA]”, which K half is on record?
**A.** 180 nM

**Q.** “GCATGATTCTTAAGACCGAGTTCATCCCTTATGTGATGGACCCTATACGCGGCCGCCATCAGAATCCCGGTGCCGAGGCCGCTCAATTGGTCGTAGACAGCTCTAGCACCGCTTAAACGCACGTACGCGCTGTCCCCCGCGTTTTAACCGCCAAGGGGATTACTCCGGACAATGGAGGCACGTGTCAGATATATACATCGATGTGCATGTATTGAACAGCGACCTTGCCGGTGCCAGTCGGATAGAATTCCGGAC (double strand) [601-SHL4 nucleosome]” was tested. Which K half (apparent Kd, SHL4 site) did it give?
**A.** 490 nM

**Q.** “GCATGATTCTTAAGACCGAGTTCATCCCTTATGTGATGGACCCTATACGCGGCCGCCATCAGAATCCCGGTGCCGAGGCCGCTCAATTGGTCGTAGACAGCTCTAGCACCGCTTAAACGCACGTACGCGCTGTCCCCCGCGTTTTGGACAATGGAGGCATTACTCCCTAGTCTCCAGGCACGTGTCAGATATATACATCGATGTGCATGTATTGAACAGCGACCTTGCCGGTGCCAGTCGGATAGAATTCCGGAC (double strand) [601-SHL2 naked DNA]” was tested. Which K half did it give?
**A.** 136 nM

**Q.** How did the K half (apparent Kd, SHL2 site) turn out when “GCATGATTCTTAAGACCGAGTTCATCCCTTATGTGATGGACCCTATACGCGGCCGCCATCAGAATCCCGGTGCCGAGGCCGCTCAATTGGTCGTAGACAGCTCTAGCACCGCTTAAACGCACGTACGCGCTGTCCCCCGCGTTTTGGACAATGGAGGCATTACTCCCTAGTCTCCAGGCACGTGTCAGATATATACATCGATGTGCATGTATTGAACAGCGACCTTGCCGGTGCCAGTCGGATAGAATTCCGGAC (double strand) [601-SHL2 nucleosome]” was run?
**A.** 374 nM

**Q.** How did the K half turn out when “GCATGATTCTTAAGACCGAGTTCATCCCTTATGTGATGGACCCTATACGCGGCCGCCATCAGAATCCCGGTGCCGAGGCCGCTCAATTGGTCGTAGACAGCTCTAGCACCGCTTAAACGCACGTAGGACAATGGAGGCGCGTTTTAACCGCCAAGGGGATTACTCCCTAGTCTCCAGGCACGTGTCAGATATATACATCGATGTGCATGTATTGAACAGCGACCTTGCCGGTGCCAGTCGGATAGAATTCCGGAC (double strand) [601-SHL0 naked DNA]” was run?
**A.** 100 nM

**Q.** For “GCATGATTCTTAAGACCGAGTTCATCCCTTATGTGATGGACCCTATACGCGGCCGCCATCAGAATCCCGGTGCCGAGGCCGCTCAATTGGTCGTAGACAGCTCTAGCACCGCTTAAACGCACGTAGGACAATGGAGGCGCGTTTTGGACAATGGAGGCATTACTCCGGACAATGGAGGCACGTGTCAGATATATACATCGATGTGCATGTATTGAACAGCGACCTTGCCGGTGCCAGTCGGATAGAATTCCGGAC (double strand) [601-SHL024 naked DNA]”, which K half is on record?
**A.** 198 nM and 275 nM and 245 nM

**Q.** For “GCATGATTCTTAAGACCGAGTTCATCCCTTATGTGATGGACCCTATACGCGGCCGCCATCAGAATCCCGGTGCCGAGGCCGCTCAATTGGTCGTAGACAGCTCTAGCACCGCTTAAACGCACGTAGGACAATGGAGGCGCGTTTTGGACAATGGAGGCATTACTCCGGACAATGGAGGCACGTGTCAGATATATACATCGATGTGCATGTATTGAACAGCGACCTTGCCGGTGCCAGTCGGATAGAATTCCGGAC (double strand) [601-SHL024 nucleosome]”, which K half (apparent Kd, SHL2 site of 3x) is on record?
**A.** 550 nM

**Q.** What about the K half (apparent Kd, SHL4 site of 3x) of the same sequence?
**A.** 680 nM

From article PMC10302475
